Data as given in PMC11445458.
Values joined by “and” are separate entries in the source; they are usually repeats but may differ in a detail not shown here. Identical values can stand only once.

Assays:
[1] = target: adaptor protein (gp41) of bacteriophage JBD30 (bacteriophage JBD30 (Casadabanvirus JBD30)); test: cryo-EM structure; single-particle reconstructions (icosahedral, C5, C12, C6, C3, asymmetric, localized) of purified JBD30 virions and empty particles in phage buffer (10 mM MgSO4, 10 mM NaCl, 50 mM Tris pH 8); native assembly
[2] = target: baseplate hub protein (gp53) of bacteriophage JBD30 (bacteriophage JBD30 (Casadabanvirus JBD30)); test: as above
[3] = target: distal tail protein (gp49) of bacteriophage JBD30 (bacteriophage JBD30 (Casadabanvirus JBD30)); test: as above
[4] = target: major capsid protein (gp38) of bacteriophage JBD30 (bacteriophage JBD30 (Casadabanvirus JBD30)); test: cryo-EM structure; single-particle reconstruction of JBD30 procapsids found in the purified phage sample (icosahedral, C5, localized C12 portal)
[5] = target: major capsid protein (gp38) of bacteriophage JBD30 (bacteriophage JBD30 (Casadabanvirus JBD30)); test: cryo-EM structure; single-particle reconstructions (icosahedral, C5, C12, C6, C3, asymmetric, localized) of purified JBD30 virions and empty particles in phage buffer (10 mM MgSO4, 10 mM NaCl, 50 mM Tris pH 8); native assembly
[6] = target: major tail protein (gp44) of bacteriophage JBD30 (bacteriophage JBD30 (Casadabanvirus JBD30)); test: as above
[7] = target: minor capsid protein (gp39) of bacteriophage JBD30 (bacteriophage JBD30 (Casadabanvirus JBD30)); test: as above
[8] = target: portal protein (gp32) of bacteriophage JBD30 (bacteriophage JBD30 (Casadabanvirus JBD30)); test: cryo-EM structure; single-particle reconstruction of JBD30 procapsids found in the purified phage sample (icosahedral, C5, localized C12 portal)
[9] = target: portal protein (gp32) of bacteriophage JBD30 (bacteriophage JBD30 (Casadabanvirus JBD30)); test: cryo-EM structure; single-particle reconstructions (icosahedral, C5, C12, C6, C3, asymmetric, localized) of purified JBD30 virions and empty particles in phage buffer (10 mM MgSO4, 10 mM NaCl, 50 mM Tris pH 8); native assembly
[10] = target: receptor binding protein (gp54) of bacteriophage JBD30 (bacteriophage JBD30 (Casadabanvirus JBD30)); test: as above
[11] = target: stopper protein (gp42) of bacteriophage JBD30 (bacteriophage JBD30 (Casadabanvirus JBD30)); test: as above
[12] = target: tape measure protein (gp46) of bacteriophage JBD30 (bacteriophage JBD30 (Casadabanvirus JBD30)); test: as above

## adaptor protein (gp41) of bacteriophage JBD30 (natural protein)
[1]
  stoichiometry N: 12

## baseplate hub protein (gp53) of bacteriophage JBD30 (natural protein)
[2]
  stoichiometry N: 3

## distal tail protein (gp49) of bacteriophage JBD30 (natural protein)
[3]
  stoichiometry N: 3

## major capsid protein (gp38) of bacteriophage JBD30 (natural protein)
[4]
  stoichiometry N: 5 and 6
[5]
  stoichiometry N: 5 and 6

## major tail protein (gp44) of bacteriophage JBD30 (natural protein)
[6]
  stoichiometry N: 6

## minor capsid protein (gp39) of bacteriophage JBD30 (natural protein)
[7]
  stoichiometry N: 3

## portal protein (gp32) of bacteriophage JBD30 (natural protein)
[8]
  stoichiometry N: 12
[9]
  stoichiometry N: 12

## receptor binding protein (gp54) of bacteriophage JBD30 (natural protein)
[10]
  stoichiometry N: 3

## stopper protein (gp42) of bacteriophage JBD30 (natural protein)
[11]
  stoichiometry N: 6

## tape measure protein (gp46) of bacteriophage JBD30 (natural protein)
[12]
  stoichiometry N: 3
